Patent US20230405078A1, “DETECTION AND TREATMENT OF INTESTINAL FIBROSIS” (THE REGENTS OF THE UNIVERSITY OF CALIFORNIA, priority 2020, published 2023)

What was measured:
[1] = system: Human colonic CCD-18Co fibroblasts; test: TGF-β1-induced fibrogenesis in CCD-18Co fibroblasts; format: cell-based; details: TGF-β1-treated CCD-18Co fibroblasts; elafin 1 μg/ml
Procedure: Cleveland Clinic IRB directives (IRB #17-1167). Primary non-IBD patient-derived colonic fibroblasts (H6231) were purchased from Cell Biologics. All primary colonic fibroblasts were cultured in fibroblast medium (M2267, Cell Biologics). Human colonic CCD-18Co fibroblasts (ATCC) were cultured in minimal essential medium Eagle's medium (MEM) containing 10% fetal bovine serum and 1% penicillin-streptomycin 6, 20. All fibroblasts were grown to 80% confluence and then switched to serum-free media overnight for experiments.
For activation of protease-activated receptors (PARs), fibroblasts were pretreated with 0.8% DMSO, 10 μM PAR1 agonist TRAP-6 (HY-P0078, MCE), 10 μM PAR2 agonist SLIGKV-NH2 (Protease-Activated Receptor-2, amide, HY-P0283, MCE), or 0.4 μg/ml PAR2-activating protease recombinant cathepsin S (1183-CY-010, R&D Systems) for 30 minutes. For miR205-5p activation, fibroblasts were transfected with (30 picomoles/well) either control (YM00479902) or miR205-5p miRCURY LNA mimic (YM00472340) from Qiagen via Lipofectamine 3000 transfection reagent (L3000001, ThermoFisher) in Opti-MEM (#31985062, ThermoFisher) overnight. For miR205-5p inhibition, fibroblasts were pretreated with 50nM either control (Y100199006) or miR205-5p power inhibitors (Y104101508-DDA) from Qiagen overnight. […]

ERK1/2 phosphorylation = test: Phospho-ERK1/2 ELISA in CCD-18Co fibroblasts; format: cell-based, human; details: elafin 1 μg/ml, 2 hours
Procedure: FIG. 27. Elafin inhibited ERK1/2 phosphorylation in intestinal fibroblasts via PAR2. (A) Serum starved CCD-18Co and primary stricturing CD patient-derived colonic fibroblasts were transiently transfected with either control siRNA or ZEB1 siRNA overnight, followed by treatment with 10 ng/ml TGF-β1 or 100 μg/ml stricturing CD patient-derived serum exosomes (CDSE) for 24 hours. (B) CCD-18Co fibroblasts were treated with DMSO, PAR1 inhibitor (SCH79797), or PAR2 inhibitor (GB88) for 2 hours. GB88 inhibited ERK1/2 phosphorylation. (C) CCD-18Co fibroblasts were pretreated with DMSO, PAR1 agonist, or PAR2 agonists for 30 minutes, followed by TGF-β1 10 ng/ml. Two hours later, elafin (1 μg/ml) and incubated for 2 hours. Elafin inhibited ERK1/2 phosphorylation, which was reversed by PAR2 agonist. […] Phospho-ERK1/2, ProCOL1A1, COL1A2, and ZEB1 protein were determined by ELISA. miR205-5p expression was determined by real-time RT-PCR. […]
FIG. 28. […] (D) Quantification of cathepsin S signals (B7-8) and control signals (A1-2 and E1-2) on the protease array using Bio-Rad Image Lab Software. […] Phospho-ERK1/2 was determined by ELISA. […] ProCOL1A1 and COL1A2 were determined by ELISA. […]

B1: Cathepsin S: PAR2-activating protease recombinant cathepsin S (protein)
chain: QLHKDPTLDHHWHLWKKTYGKQYKEKNEEAVRRLIWEKNLKFVMLHNLEHSMGMHSYDLGMNHLGDMTSEEVMSLMSSLRVPSQWQRNITYKSNPNRILPDSVDWREKGCVTEVKYQGSCGACWAFSAVGALEAQLKLKTGKLVSLSAQNLVDCSTEKYGNKGCNGGFMTTAFQYIIDNKGIDSDASYPYKAMDQKCQYDSKYRAATCSKYTELPYGREDVLKEAVANKGPVSVGVDARHPSFFLYRSGVYYEPSCTQNVNHGVLVVGYGDLNGKEYWLVKNSWGHNFGEEGYIRMARNKGNHCGIASFPSYPEI
[1]
  effect on elafin-mediated inhibition of collagen expression: reversed
ERK1/2 phosphorylation
  effect on elafin-mediated inhibition of ERK1/2 phosphorylation: reversed
